The results in this text go back to paper PMC13185157 (ACS Synthetic Biology, 2026).

First the molecules themselves.
B1: α-GFP Nb displayed as N-terminal fusion to HA-tagged Aga1ΔN181 (VHH)
VHH: QVQLVESGGALVQPGGSLRLSCAASGFPVNRYSMRWYRQAPGKEREWVAGMSSAGDRSSYEDSVKGRFTISRDDARNTVYLQMNSLKPEDTAVYYCNVNVGFEYWGQGTQVTVSS
notes: anti-GFP nanobody; Plasmid details in File S1; also called anti-GFP Nanobody; not shown: HA (of the anchor part), internal (between nanobody and anchor), kept; Aga1ΔN181 anchor (Aga1p YNR044W amino acids 182–544), C-terminal, kept
B2: α-GFP Nb displayed as C-terminal fusion to untagged Aga2 (VHH)
VHH: B1 VHH
notes: anti-GFP nanobody, as in m2; also called anti-GFP Nanobody; not shown: Aga2p anchor (YGL032C), N-terminal, kept
B3: α-GFP Nb displayed as N-terminal fusion to 2xFLAG-tagged Aga1ΔN181 (VHH)
VHH: B1 VHH
notes: anti-GFP nanobody, as in m2; also called anti-GFP Nanobody; not shown: 2xFLAG, internal (between nanobody and anchor), kept; Aga1ΔN181 anchor (Aga1p YNR044W amino acids 182–544), C-terminal, kept
B4: α-GFP Nb displayed as C-terminal fusion to HA-tagged Aga2 (VHH)
VHH: B1 VHH
notes: anti-GFP nanobody, as in m2; Held on the cell by coexpressed Aga1; also called anti-GFP Nanobody; not shown: HA, internal (after amino acid 18 of Aga2p, after the signal peptide), kept; Aga2p anchor (YGL032C), N-terminal, kept
B5: α-GFP Nb displayed as C-terminal fusion to MYC-tagged Aga2 (VHH)
VHH: B1 VHH
notes: as for B2
B6: α-GFP Nb displayed as C-terminal fusion to 2xFLAG-tagged Aga2 (VHH)
VHH: B1 VHH
notes: anti-GFP nanobody, as in m2; Held on the cell by coexpressed Aga1; also called anti-GFP Nanobody; not shown: 2xFLAG, internal (after amino acid 18 of Aga2p, after the signal peptide), kept; Aga2p anchor (YGL032C), N-terminal, kept
B7: α-GFP Nb displayed as N-terminal fusion to MYC-tagged Aga1ΔN181 (VHH)
VHH: B1 VHH
notes: anti-GFP nanobody, as in m2; also called anti-GFP Nanobody; not shown: MYC, internal (between nanobody and anchor), kept; Aga1ΔN181 anchor (Aga1p YNR044W amino acids 182–544), C-terminal, kept

T1 sequence (P42212 other isoform, or with tags, fused parts or gaps): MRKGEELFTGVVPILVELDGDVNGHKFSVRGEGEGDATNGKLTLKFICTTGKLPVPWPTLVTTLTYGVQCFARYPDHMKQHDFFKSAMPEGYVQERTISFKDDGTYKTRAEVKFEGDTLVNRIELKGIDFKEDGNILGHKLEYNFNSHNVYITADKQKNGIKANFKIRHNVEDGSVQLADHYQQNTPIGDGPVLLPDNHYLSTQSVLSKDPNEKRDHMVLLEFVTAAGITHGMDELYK

The experiment concerns the target T1, GFP (Aequorea victoria GFP, engineered …).
T1 construct: green fluorescent protein expressed from pYTK001; also called green fluorescent protein; source: E. coli DH5α, constitutive expression from pYTK001, in lysate
Description: flow cytometry on cells; about 1 x 10^6 yeast cells displaying the α-GFP Nb in 20 mM HEPES pH 7.5, 150 mM NaCl, 0.1% BSA, 5 mM maltose; GFP from a bacterial cell lysate (20–30 μL); 15 min at 4 °C; GFP fluorescence, percent of positive cells. The conditions noted are these: partners not purified.
As for B1, the “percent of cells labelled with GFP” value is greater than 80%.
Consider B2, for which the “percent of cells labelled with GFP” value was greater than 60%.
For B3, the “percent of cells labelled with GFP” value is greater than 80%.
For the molecule B4, the “percent of cells labelled with GFP” value was greater than 60%.
In the case of B5, the “percent of cells labelled with GFP” value was greater than 60%.
As to B6, the “percent of cells labelled with GFP” value is greater than 60%.
Consider B7, for which the “percent of cells labelled with GFP” value was greater than 80%.
